B1: Vang-like protein 1 (Homo sapiens), Q8TAA9 (parent)
chain: MDTESTYSGYSYYSSHSKKSHRQGERTRERHKSPRNKDGRGSEKSVTIQPPTGEPLLGNDSTRTEEVQDDNWGETTTAITGTSEHSISQEDIARISKDMEDSVGLDCKRYLGLTVASFLGLLVFLTPIAFILLPPILWRDELEPCGTICEGLFISMAFKLLILLIGTWALFFRKRRADMPRVFVFRALLLVLIFLFVVSYWLFYGVRILDSRDRNYQGIVQYAVSLVDALLFIHYLAIVLLELRQLQPMFTLQVVRSTDGESRFYSLGHLSIQRAALVVLENYYKDFTIYNPNLLTASKFRAAKHMAGLKVYNVDGPSNNATGQSRAMIAAAARRRDSSHNELYYEEAEHERRVKKRKARLVVAVEEAFIHIQRLQAEEQQKAPGEVMDPREAAQAIFPSMARALQKYLRITRQQNYHSMESILQHLAFCITNGMTPKAFLERYLSAGPTLQYDKDRWLSTQWRLVSDEAVTNGLRDGIVFVLKCLDFSLVVNVKKIPFIILSEEFIDPKSHKFVLRLQSETSV
partner: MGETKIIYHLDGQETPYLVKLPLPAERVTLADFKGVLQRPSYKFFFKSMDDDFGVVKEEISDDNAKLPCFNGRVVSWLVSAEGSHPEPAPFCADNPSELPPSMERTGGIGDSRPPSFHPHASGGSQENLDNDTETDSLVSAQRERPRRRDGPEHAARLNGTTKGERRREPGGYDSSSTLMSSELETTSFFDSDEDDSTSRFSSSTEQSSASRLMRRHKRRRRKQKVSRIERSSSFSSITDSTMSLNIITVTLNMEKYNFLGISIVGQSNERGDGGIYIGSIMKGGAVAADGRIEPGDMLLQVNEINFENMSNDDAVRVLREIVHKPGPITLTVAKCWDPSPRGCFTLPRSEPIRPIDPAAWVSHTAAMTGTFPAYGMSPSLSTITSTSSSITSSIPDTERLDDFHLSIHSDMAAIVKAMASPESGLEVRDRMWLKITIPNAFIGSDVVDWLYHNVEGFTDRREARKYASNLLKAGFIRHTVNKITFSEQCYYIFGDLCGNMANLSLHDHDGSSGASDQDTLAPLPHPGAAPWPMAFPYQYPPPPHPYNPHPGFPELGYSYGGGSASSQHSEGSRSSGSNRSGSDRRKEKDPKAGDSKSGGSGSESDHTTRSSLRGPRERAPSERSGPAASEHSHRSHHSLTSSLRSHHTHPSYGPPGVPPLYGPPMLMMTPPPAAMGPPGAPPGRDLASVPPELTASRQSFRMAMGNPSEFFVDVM
B2: Vang-like protein 1 (Homo sapiens), Q8TAA9 (parent)
chain: B1 chain
partner: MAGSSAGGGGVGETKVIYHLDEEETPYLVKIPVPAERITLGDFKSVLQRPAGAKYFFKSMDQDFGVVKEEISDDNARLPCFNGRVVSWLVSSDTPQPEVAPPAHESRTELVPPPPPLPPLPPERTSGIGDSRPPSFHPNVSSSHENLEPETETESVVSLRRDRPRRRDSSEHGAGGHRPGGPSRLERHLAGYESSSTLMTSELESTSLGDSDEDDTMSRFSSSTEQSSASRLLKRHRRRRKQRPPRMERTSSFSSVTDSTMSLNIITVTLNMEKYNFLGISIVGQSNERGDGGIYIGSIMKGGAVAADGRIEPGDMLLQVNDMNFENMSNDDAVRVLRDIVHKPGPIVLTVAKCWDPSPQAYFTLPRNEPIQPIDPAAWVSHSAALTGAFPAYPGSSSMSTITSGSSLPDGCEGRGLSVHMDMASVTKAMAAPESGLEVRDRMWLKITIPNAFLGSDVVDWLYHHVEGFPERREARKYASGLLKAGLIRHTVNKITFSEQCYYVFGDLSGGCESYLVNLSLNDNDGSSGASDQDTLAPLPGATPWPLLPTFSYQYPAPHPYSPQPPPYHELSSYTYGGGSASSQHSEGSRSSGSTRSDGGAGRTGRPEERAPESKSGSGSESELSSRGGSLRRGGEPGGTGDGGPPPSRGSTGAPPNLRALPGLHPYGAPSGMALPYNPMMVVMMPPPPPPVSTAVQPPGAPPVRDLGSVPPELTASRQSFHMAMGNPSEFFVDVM

Results on 5 variants are retold here after IntAct's records for PubMed 17409324.

Variants of B1 are the subject of the first test. To be noted: with dvl3_mouse Dvl3, Q61062.
Take MDTESTYSGYSYYSSHSKKSHRQGERTRERHKSPRNKDGRGSEKSVTIQPPTGEPLLGNDSTRTEEVQDDNWGETTTAITGTSEHSISQEDIARISKDMEDSVGLDCKRYLGLTVASFLGLLVFLTPIAFILLPPILWRDELEPCGTICEGLFISMAFKLLILLIGTWALFFRKRRADMPRVFVFRALLLVLIFLFVVSYWLFYGVRILDSRDRNYQGIVQYAVSLVDALLFIHYLAIILLELRQLQPMFTLQVVRSTDGESRFYSLGHLSIQRAALVVLENYYKDFTIYNPNLLTASKFRAAKHMAGLKVYNVDGPSNNATGQSRAMIAAAARRRDSSHNELYYEEAEHERRVKKRKARLVVAVEEAFIHIQRLQAEEQQKAPGEVMDPREAAQAIFPSMARALQKYLRITRQQNYHSMESILQHLAFCITNGMTPKAFLERYLSAGPTLQYDKDRWLSTQWRLVSDEAVTNGLRDGIVFVLKCLDFSLVVNVKKIPFIILSEEFIDPKSHKFVLRLQSETSV [V239I]: the “effect of a mutation on the interaction” value is recorded as “disrupting interaction strength”.

In another test the parent is B2. To be noted: with dvl2_mouse Dvl2, Q60838.
For the variant MDTESTYSGYSYYSSHSKKSHRQGERTRERHKSPRNKDGRGSEKSVTIQPPTGEPLLGNDSTRTEEVQDDNWGETTTAITGTSEHSISQEDIARISKDMEDSVGLDCKRYLGLTVASFLGLLVFLTPIAFILLPPILWRDELEPCGTICEGLFISMAFKLLILLIGTWALFFRKRRADMPRVFVFRALLLVLIFLFVVSYWLFYGVRILDSRDRNYQGIVQYAVSLVDALLFIHYLAIVLLELRQLQPMFTLQVVRSTDGESRFYSLGHLSIQQAALVVLENYYKDFTIYNPNLLTASKFRAAKHMAGLKVYNVDGPSNNATGQSRAMIAAAARRRDSSHNELYYEEAEHERRVKKRKARLVVAVEEAFIHIQRLQAEEQQKAPGEVMDPREAAQAIFPSMARALQKYLRITRQQNYHSMESILQHLAFCITNGMTPKAFLERYLSAGPTLQYDKDRWLSTQWRLVSDEAVTNGLRDGIVFVLKCLDFSLVVNVKKIPFIILSEEFIDPKSHKFVLRLQSETSV [R274Q], the “effect of a mutation on the interaction” value is recorded as “with no effect”. Take MDTESTYSGYSYYSSHSKKSHRQGERTRERHKSPRNKDGRGSEKSVTIQPPTGEPLLGNDSTRTEEVQDDNWGETTTAITGTSEHSISQEDIARISKDMEDSVGLDCKRYLGLTVASFLGLLVFLTPIAFILLPPILWRDELEPCGTICEGLFISMAFKLLILLIGTWALFFRKRRADMPRVFVFRALLLVLIFLFVVSYWLFYGVRILDSRDRNYQGIVQYAVSLVDALLFIHYLAIVLLELRQLQPMFTLQVVRSTDGESRFYSLGHLSIQRAALVVLENYYKDFTIYNPNLLTASKFRAAKHMAGLKVYNVDGPSNNATGQSRATIAAAARRRDSSHNELYYEEAEHERRVKKRKARLVVAVEEAFIHIQRLQAEEQQKAPGEVMDPREAAQAIFPSMARALQKYLRITRQQNYHSMESILQHLAFCITNGMTPKAFLERYLSAGPTLQYDKDRWLSTQWRLVSDEAVTNGLRDGIVFVLKCLDFSLVVNVKKIPFIILSEEFIDPKSHKFVLRLQSETSV [M328T]: the “effect of a mutation on the interaction” value is recorded as “with no effect”. Still for that read-out and setting: then MDTESTYSGYSYYSSHSKKSHRQGERTRERHKSPRNKDGRGSEKSVTIQPPTGEPLLGNDSTRTEEVQDDNWGETTTAITGTSEHSISQEDIARISKDMEDSVGLDCKRYLGLTVASFLGLLVFLTPIAFILLPPILWRDELEPCGTICEGLFISMAFKLLILLIGTWALFFRKRRADMPRVFVFRALLLVLIFLFVVSYWLFYGVRILDSRDRNYQGIVQYAVSLVDALLFIHYLAIVLLELRQLQPMFTLQVVRSTDGESRFYSLGHLSIQRAALVVLENYYKDFTIYNPNLLTASKFRAAKHMAGLKVYNVDGPSNNATGQSRAMIAAAARRRDSSHNELYYEEAEHERRVKKRKARLVVAVEEAFIHIQRLQAEEQQKAPGEVMDPREAAQAIFPSMARALQKYLRITRQQNYHSMESILQHLAFCITNGMTPKAFLERYLSAGPTLQYDKDRWLSTQWRLVNDEAVTNGLRDGIVFVLKCLDFSLVVNVKKIPFIILSEEFIDPKSHKFVLRLQSETSV [S467N], with “decreasing interaction strength”; and MDTESTYSGYSYYSSHSKKSHRQGERTRERHKSPRNKDGRGSEKSVTIQPPTGEPLLGNDSTRTEEVQDDNWGETTTAITGTSEHSISQEDIARISKDMEDSVGLDCKRYLGLTVASFLGLLVFLTPIAFILLPPILWRDELEPCGTICEGLFISMAFKLLILLIGTWALFFRKRRADMPRVFVFRALLLVLIFLFVVSYWLFYGVRILDSRDRNYQGIVQYAVSLVDALLFIHYLAIILLELRQLQPMFTLQVVRSTDGESRFYSLGHLSIQRAALVVLENYYKDFTIYNPNLLTASKFRAAKHMAGLKVYNVDGPSNNATGQSRAMIAAAARRRDSSHNELYYEEAEHERRVKKRKARLVVAVEEAFIHIQRLQAEEQQKAPGEVMDPREAAQAIFPSMARALQKYLRITRQQNYHSMESILQHLAFCITNGMTPKAFLERYLSAGPTLQYDKDRWLSTQWRLVSDEAVTNGLRDGIVFVLKCLDFSLVVNVKKIPFIILSEEFIDPKSHKFVLRLQSETSV [V239I], with “disrupting interaction strength”.
